Test results: patent publication US20150232562A1 (Ablynx, published 2015)

B1: 15G1 (VHH)
VHH: EVQLVESGGSLVPPGGSLRLSCAASGFTFDDYAMSWVRQAPGKGLEWVSSINWSGTHTDYTDSVKGRFTISRNNANNTLYLQMNSLKSEDTAVYYCAKNWRDAGTTWFEKSGSAGQGTQVTVSS
notes: C-term myc-His6 tag
B2: 17D8 (VHH)
VHH: EVQLVESGGSLVPPGGSLRLSCAVSGFTFDDYAMSWVRQAPGKGLEWVSSINWSGTHTDYTDSVKGRFTISRNNANNMLYLQMNSLKSEDTAVYYCAKNWRDAGTTWFEKSGSAGQGTQVTVSS
notes: C-term myc-His6 tag
B3: 17E2 (VHH)
VHH: EVQLVESGGSLVPPGGSLRLSCAASGFTFDDYGMSWVRQAPGKGLEWVSSINWSGTHTDYTDSVKGRFTISRNNANNTLYLQMNSLKSEDTAVYYCAKNWGDAGTTWFEKSGSAGQGTQVTVSS
notes: C-term myc-His6 tag
B4: 17E7 (VHH)
VHH: EVQLVESGGSLVQPGGSLRLSCAASGFTFDDYAMSWVRQVPGKGLEWVSSINWSGTHTDYADSVKGRFTISRNNANNTLYLQMNSLKSEDTAVYYCAKNWRDAGTTWFEKSGSAGQGTQVTVSS
notes: C-term myc-His6 tag
B5: 17E10 (VHH)
VHH: EVQLVESGGSLVQPGGSLRLSCAASGFTFDDYAMTWVRQAPGKGLEWVSSINWSGTHTDCTDSVKGRFTISRNNANNTLYLQMNSLKSEDTAVYYCAKNWGDAGTTWFEKSGSAGQGTQVTVSS
notes: C-term myc-His6 tag
B6: 17G8 (VHH)
VHH: EVQLVESGGSLVPPGGSLRLSCAASGFTFDDYAMSWVRQAPGKGLEWVSSINWSGTHTGYTDSVKGRFTISRNNANNTLYLQMNSLKSEDTAVYYCAKNWGDAGTTWFEKSGSAGQGTQVTVSS
notes: C-term myc-His6 tag
B7: 27B1 (VHH)
VHH: EVQLVESGGSLVQPGGSLRLSCAASGFTFDDYAMSWVRQAPGKGLEWISSINWSGTHTDYADSVKGRFTISRNNANNTLYLQMNNLKFEDTAVYYCAKNWRDAGTTWFEKSGSAGQGTQVTVSS
notes: C-term myc-His6 tag
B8: 27D4 (VHH)
VHH: EVQLVESGGSLVQPGGSLRLSCAASGFTFDDYAMTWVRQASGKGLEWVSSINWSGTHTDYADSVKGRFTISRNNANNTLYLQMNSLKSEDTAVYYCAKNWGDAGTTWFEKSGSAGQGTQVTVSS
notes: C-term myc-His6 tag
B9: 27G2 (VHH)
VHH: EVQLVESGGSLVQPGGSLRLSCAASGFTFDDYAMTWVRQTPGKGLEWVSSINWSGTHTDYTDSVKGRFTISRNNANNTLYLQMNSLKSDDTAVYYCAKNWGDAGTTWFEKSGSAGPGTQVTVSS
notes: C-term myc-His6 tag
B10: 29H1 (VHH)
VHH: EVQLVESGGSLVPPGGSLRLSCAASGFTFDDYAMSWVRQAPGKGLEWVSSINWSGTHTGYTDSVKGRFTISRNNANNTLYLQMNSLKSEDTAVYYCAKNWGDAGTTWFEKSGSAGQGTQVTVSS
notes: C-term myc-His6 tag
B11: 30E10 (VHH)
VHH: KVQLVESGGSLVPPGGSLRLSCAASGFTFDDYAMTWVRQAPGKGLEWVSSINWSGTHTDYTDSVKGRFTISRNNANNTLYLQMNSLKSEDTAVYYCAKNWGDAGTTWFEKSGSAGQGTQVTVSS
notes: C-term myc-His6 tag
B12: 39C1 (VHH)
VHH: EVQLVESGGSLVPPGGSLRLSCAASGFTFDDYGMSWVRQAPGKGLEWVSSINWSGTHTDYTDSVKGRFTISRNNANNTLYLQMNSLKSEDTAVYYCAKNWGDAGTTWFEKSGSAGQGTQVTVSS
notes: C-term myc-His6 tag
B13: 2E2 (VHH)
VHH: EVQLVESGGGLVQPGGSLRLSCVASGFSLDDYGMTWVRQAPGKGLEWVSSINWSGTHTDYADSVKGRFTISRDNAKNTLFLQMNSLTPEDTAVYYCNQGWKIIPTDRRGHGTQVTVSS
notes: C-term myc-His6 tag
B14: 13D2 (VHH)
VHH: EVQLVESGGGLVQPGGSLRLSCVASGFSLDDYGMTWVRQAPGKGLEWVSSINWSGTHTDYADSVKGRFTISRDNAKNTLFLQMNNLRSEDTAVYSCNQGWKIVPTDRGGHGTQVTVSS
notes: C-term myc-His6 tag
B15: 13D11 (VHH)
VHH: EVQLVESGGGLVHPGGSLRLSCVGSGFSLDDYGMTWVRRAPGKGLEWVSSINWSGTHTDYADSVKGRFTISRDNAKNTLFLQMNSLNPEDTAVYYCGQGWKIVPTNPRGHGTQVTVSS
notes: C-term myc-His6 tag
B16: 15G8 (VHH)
VHH: EVQLVESGGGLVQPGGSLKLSCVASGFSLDDYGMTWVRQAPGKGLEWVSSINWNGTHTDYAYSVKGRFTISRDNAKNTLFLQMNSLTPENTAVYYCNQGWKILPAERRGHGTQVTVSS
notes: C-term myc-His6 tag
B17: 17D2 (VHH)
VHH: EVQLVESGGGLVQPGGSLRLSCVASGFSLDDYGMTWVRQAPGKGLEWVSSINWSGTHTDYADSVKGRFTISRDNAKNTLFLQMNSLRSEDTAVYYCNQGWKIVPTDRGSHGTQVTVSS
notes: C-term myc-His6 tag
B18: 17E4 (VHH)
VHH: EVQLVESGGGLVQPGGSLRLSCVASGFSLDDYGMTWVRQAPGKGLEWVSSINWSGTHTDYADSVKGRFVISRDNAKNTLFLQMNSLSPEDTAVYYCNQGWKIIPTDRRGHGTQVTVSS
notes: C-term myc-His6 tag
B19: 17H3 (VHH)
VHH: EVQLMESGGGLVQPGGSLRLSCVASGFSLDDYGMTWVRQAPGKGLEWVSSINWSGTHTDYADSVKGRFTISRDNAKNTLFLQMNSLRSEDTAVYYCNQGWKIVPTDRGGHGTQVTVSS
notes: C-term myc-His6 tag
B20: 5G4 (VHH)
VHH: EVQLVESGGGLVQPGGSLTLSCAGSGFIFDDYAMSWVRQAPGKGLEWVSSINWSGSHRNYADSVKGRFTISRDNAKKTLYLQMNSLKSEDTAVYYCATGWQSTTKNQNYWGQGTQVTVSS
notes: C-term myc-His6 tag
B21: 15B7 (VHH)
VHH: EVQLVESGGGLVQPGGSLKLSCAASGFIFDDYAMSWVRQAPGKGLEWVSAINWSGSHRNYADSVKGRFTISRDNAKKTVYLQMNSLQSEDTAVYYCGTGWQSTTKSQGYWGQGTQVTVSS
notes: C-term myc-His6 tag
B22: 15G7 (VHH)
VHH: EVQLVESGGGLVQPGGSLRLSCAASGFIFDDYAMSWVRQAPGKGLEWVSAINWSGTHRNYADSVKGRFTISRDNNKKTVYLQMNSLKSEDTAVYYCATGWQSTTKNQGYWGQGTQVTVSS
notes: C-term myc-His6 tag
B23: 2H3 (VHH)
VHH: EVQLVESGGGLVQPGGSLRLSCVASGFSLDDYGMTWVRQAPGKGLEWVSSINWSGTHTDYADSVKGRFTISRDNAKNTLFLQMNSLTPEDTAVYYCNQGWKIIPTDRRGHGTQVTVSS
notes: C-term myc-His6 tag
B24: 2E3 (VHH)
VHH: EVQLVESGGGLVQPGGSLRLSCVASGFSLDDYGMTWVRQAPGKGLEWVSSINWSGTHTDYADSVKGRFTISRDNAKNTLFLQMNSLSPEDTAVYYCNQGWKILPTNRGSHGTQVTVSS
notes: C-term myc-His6 tag
B25: 13B10 (VHH)
VHH: EVQLVESGGGLVQPGGSLRLSCVASGFSLDDYGMTWVRQAPGKGFEWVSSINWSGTHTDYADSVKGRFTISRDNAKNTLFLQMNSLSPEDTAVYYCNQGWKILPTNRGSHGTQVTVSS
notes: C-term myc-His6 tag
B26: 15C5 (VHH)
VHH: EVQLVESGGGLVQPGGSLKLSCVASGFSLDDYGMTWVRQAPGKGLEWVSSINWNVTHTDYAYSVKGRFTISRDNAKNTLFLQMNSLTPEDTAVYYCNQGWKIIPTDRRGHGTQVTVSS
notes: C-term myc-His6 tag
B27: 15C11 (VHH)
VHH: EVQLVESGGGLVQPGGSLRLSCVASGFSLDDYGMTWVRQAPGKGLEWVSSINWSGTHTDYADSVKGRFTISRDNAKNTLFLQMNSLTPEDTAVYYCNQGWKILPAERRGHGTPVTVSS
notes: C-term myc-His6 tag
B28: 15D1 (VHH)
VHH: EVQLVESGGGLVQPGGSLRLSCVASGFSLDDYAMTWVRQAPGKGLEWVSSINWSGTHTDYADSVKGRFTISRDNAKNTLFLQMNSLNPEDTAVYYCNQGWKVWPTDRGTHGTQVTVSS
notes: C-term myc-His6 tag
B29: 17A2 (VHH)
VHH: EVQLVESGGGLVQPGGSLRLSCVASGFSLDDYAMTWVRQAPGKGLEWVSSINWSGTHTDYADSVKGRFTISRDNAKNTLFLQMNSLSPEDTAVYYCNKGWKVWPTDRGTHGTQVTVSS
notes: C-term myc-His6 tag
B30: 17B8 (VHH)
VHH: EVQLVESGGGLVQPGGSLRLSCVASGFSLDDYGMTWVRQAPGKGLEWVSSINWSGTHTDYADSVKGRFTISRDNAKNTLFLQMNSLTPEDTAVYYCNQGWKILPAERRGHGTQVTVSS
notes: C-term myc-His6 tag
B31: 17H4 (VHH)
VHH: EVQLVESGGGLVQPGGSLRLSCVASGFSLINYAMTWVRQAPGKGLEWVSSINWSGTHTDYADSVKGRFTISRDNAKNTLFLHMNNLSPEDTAVYYCGQGWKIHPADRGGHGTQVTVSS
notes: C-term myc-His6 tag
B32: 27G8 (VHH)
VHH: EVQLVESGGGLVQPGGSLRLSCVASGFSLDDYGMTWVRQAPGKGLEWVSSINWSGTHTDYADSVKGRFTISRDNAKNTLFLQMNSLTPEDTAVYYCNQGWKILPAERRGHGTQVTVSS
notes: C-term myc-His6 tag
B33: 29H2 (VHH)
VHH: EVQLVESGGGLVQPGGSLRLSCVASGFSLDDYGMTWVRQAPGKGLEWVSSINWSGTHTDYADSVKGRFTISRDNAKNTLFLQMNNLTPEDTAVYYCNQGWKIIPTDRRGHGTQVTVSS
notes: C-term myc-His6 tag

Each binder was assayed against T1, Epidermal Growth Factor Receptor 2 (HER2) (human, UniProt P04626 23-1255) (assay: FMAT competition on SKBR3 cells, periplasmic extract).
T1 construct: whole, on cells; the cell line is named under assay; also called ErbB-2; ERBB2

% blocking of Herceptin binding, > 90%:
B1
B2
B3
B4
B5
B6
B7
B8
B9
B10
B11
B12
B13
B14
B15
B16
B17
B18
B19
B20
B21
B22
B23
B24
B25
B26
B27
B28
B29
B30
B31
B32
B33
